Molecular target: T1, histidine-tagged Vag8 passenger domain (residues Val40 to Leu610) (Bordetella pertussis, UniProt Q79GN7 40-610)
T1 construct: autotransporter Vag8, Bordetella pertussis BP338 (Tohama I derivative), predicted passenger domain, residues Val40 to Leu610; Cloned with BamHI and HindIII into pET30b; also called purified Vag8 passenger; recombinant Vag8
T1 sequence: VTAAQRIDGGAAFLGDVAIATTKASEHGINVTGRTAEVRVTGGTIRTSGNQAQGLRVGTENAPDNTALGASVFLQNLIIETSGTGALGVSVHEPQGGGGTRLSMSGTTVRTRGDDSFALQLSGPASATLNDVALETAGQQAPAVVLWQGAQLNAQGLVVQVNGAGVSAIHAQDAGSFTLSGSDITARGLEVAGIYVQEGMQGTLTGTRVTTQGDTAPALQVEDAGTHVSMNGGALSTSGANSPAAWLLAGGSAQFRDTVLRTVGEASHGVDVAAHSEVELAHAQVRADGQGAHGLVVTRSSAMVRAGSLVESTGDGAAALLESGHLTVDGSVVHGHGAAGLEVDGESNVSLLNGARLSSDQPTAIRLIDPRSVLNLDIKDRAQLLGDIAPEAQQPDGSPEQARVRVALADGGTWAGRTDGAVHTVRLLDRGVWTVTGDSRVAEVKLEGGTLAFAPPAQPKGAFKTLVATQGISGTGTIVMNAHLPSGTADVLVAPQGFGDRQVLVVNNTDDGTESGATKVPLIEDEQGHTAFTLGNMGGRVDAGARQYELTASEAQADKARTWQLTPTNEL
Experiment: ELISA; MaxiSorp plates coated with two-fold dilutions of purified passenger domain (top 5 µg/ml, PBS pH 7.4, overnight 4°C); probed 1 h at room temperature with 10 µg/ml purified human C1inh; detected with goat anti-C1inh
Details: both partners purified

B1: purified human C1 esterase inhibitor (natural protein)
chain: NPNATSSSSQDPESLQDRGEGKVATTVISKMLFVEPILEVSSLPTTNSTTNSATKITANTTDEPTTQPTTEPTTQPTIQPTQPTTQLPTDSPTQPTTGSFCPGPVTLCSDLESHSTEAVLGDALVDFSLKLYHAFSAMKKVETNMAFSPFSIASLLTQVLLGAGENTKTNLESILSYPKDFTCVHQALKGFTTKGVTSVSQIFHSPDLAIRDTFVNASRTLYSSSPRVLSNNSDANLELINTWVAKNTNNKISRLLDSLPSDTRLVLLNAIYLSAKWKTTFDPKKTRMEPFHFKNSVIKVPMMNSKKYPVAHFIDQTLKAKVGQLQLSHNLSLVILVPQNLKHRLEDMEQALSPSVFKAIMEKLEMSKFQPTLLTLPRIKVTTSQDMLSIMEKLEFFDFSYDLNLCGLTEDPDLQVSAMQHQTVLELTETGVEAAAASAISVARTLLVFEVQQPFLFVLWDQQHKFPVFMGRVYDPRA
notes: also called C1inh; purified C1inh; source: bought: Advanced Research Technologies (purified human C1inh)
B1: binds.

— article PMC3114845, “Bordetella pertussis Autotransporter Vag8 Binds Human C1 Esterase Inhibitor and Confers Serum Resistance” (PLoS ONE, 2011)
